Target: Recombinant human Rac1 (Q2-L177), His-tagged (human, UniProt P63000 2-177)
Assay: AlphaScreen or HTRF

B1: Truncated recombinant human Tiam1 (R1033-E1406), FLAG-tagged (domain or fragment)
chain: RQLSDADKLRKVICELLETERTYVKDLNCLMERYLKPLQKETFLTQDELDVLFGNLTEMVEFQVEFLKTLEDGVRLVPDLEKLEKVDQFKKVLFSLGGSFLYYADRFKLYSAFCASHTKVPKVLVKAKTDTAFKAFLDAQNPKQQHSSTLESYLIKPIQRILKYPLLLRELFALTDAESEEHYHLDVAIKTMNKVASHINEMQKIHEEFGAVFDQLIAEQTGEKKEVADLSMGDLLLHTTVIWLNPPASLGKWKKEPELAAFVFKTAVVLVYKDGSKQKKKLVGSHRLSIYEDWDPFRFRHMIPTEALQVRALASADAEANAVCEIVHVKSESEGRPERVFHLCCSSPESRKDFLKAVHSILRDKHRRQLLKTE
B1: binds.
